The source of these data is publication PMC10801562 (Antibodies, 2024).

Assay [1] addresses T1, recombinant human HER2 (Sino Biological, 10004-H08H) (Homo sapiens, UniProt P04626).
T1 construct: human epidermal growth factor receptor 2 (HER2), recombinant; also called human epidermal growth factor receptor 2; source: bought: Sino Biological
Nature of the assay: SPR; Biacore T200, 37 °C, pH 7.4, PB-P+ (0.05 mol/L Na-phosphate, 0.15 mol/L NaCl, 0.05% P-20); antibody captured (200 RU) by anti-mouse IgG (Fc) antibody on a CM4 chip; human HER2 as analyte, 6.3-100 nmol/L; 1:1 binding model. The settings on record: both partners purified.

Assay [2] deals with T2, recombinant human CD3ε-CD3δ heterodimeric protein (CD3εδ) (Homo sapiens).
T2 construct: human CD3ε of the recombinant CD3εδ heterodimer; human CD3δ of the recombinant CD3εδ heterodimer; source: in-house prepared
T2 chain 1: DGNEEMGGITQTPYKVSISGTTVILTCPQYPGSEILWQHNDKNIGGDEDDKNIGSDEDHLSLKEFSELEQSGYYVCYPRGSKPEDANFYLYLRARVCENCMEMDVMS
T2 chain 2: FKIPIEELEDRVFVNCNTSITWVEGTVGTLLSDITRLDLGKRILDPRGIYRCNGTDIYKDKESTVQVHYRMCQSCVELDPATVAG
Kind of assay: SPR; Biacore T200, 37 °C, pH 7.4, PB-P+; antibody captured (630 RU) by anti-mouse IgG (Fc) antibody on a CM4 chip; human CD3εδ as analyte, 18.8-19,200 nmol/L (mHIT3a, mOKT3) or 75-76,800 nmol/L (m12F6); steady state model. The settings on record: both partners purified.

Numbering of substitutions follows the chain as printed.

B1: m2C4 mIgG1 V1+C19, homodimeric antibody with FAST-Ig V1+C19 mutations (antibody, V domains shown)
VH: EVQLQQSGPELVKPGTSVKISCKASGFTFTDYTMDWVKKSHGKSLEWIGDVNPNSGGSIYNQRFKGKASLTVDRSSRIVYMELRSLTFEDTAVYYCARNLGPSFYFDYWGQGTTLTVSS
VL: DTVMTQSHKIMSTSVGDRVSITCKASQDVSIGVAWYQERPGQSPKLLIYSASYRYTGVPDRFTGSGSGTDFTFTISSVQAEDLAVYYCQQYYIYPYTFGGGTKLEIK
notes: VH of m2C4; mouse IgG1 (mIgG1) heavy chain constant region; K147 kept; numbers count on: Eu numbering; VL of m2C4; mouse kappa light chain constant region (CL); numbers count on: Kabat numbering; Whole IgG of one HC and one LC; also called anti-HER2; H1L1H1L1; source: Expi293F, transiently expressed, purified (Ab-Capcher MAG2 or MonoSpin ProG); copies: 2 + 2
As for B1, the Kd in assay [1] is 0.000784 µM.

B2: mOKT3 mIgG1 V1+C19, homodimeric antibody with FAST-Ig V1+C19 mutations (antibody, V domains shown)
VH: not shown
VL: QIVLTQSPAIMSASPGEKVTMTCSASSSVSYMNWYQKKSGTSPKRWIYDTSKLASGVPAHFRGSGSGTSYSLTISGMEAEDAATYYCQQWSSNPFTFGSGTKLEIN
notes: VH of mOKT3; mouse IgG1 (mIgG1) heavy chain constant region; numbers count on: Eu numbering; VL of mOKT3; mouse kappa light chain constant region (CL); numbers count on: Kabat numbering; Whole IgG of one HC and one LC; also called anti-CD3; H2L2H2L2; source: Expi293F, transiently expressed, purified (Ab-Capcher MAG2 or MonoSpin ProG); copies: 2 + 2
B2: the Kd in assay [2] is 4.48 µM.

B3: mHIT3a mIgG1 V1+C19, homodimeric antibody with FAST-Ig V1+C19 mutations (antibody, V domains shown)
VH: QVQLQESGAELARPGASVKMSCKASGYTFTRYTMHWVKERPGQGLEWIGYINPSRGYTNYNQKFKDKATLTTDKSSSTAYMELTRLTSEDSAVYYCARYYDDHYCLDYWGQGTTVTVSS
VL: B2 VL with Q1D, V3E, H60R, R62S, I105L, N106K
notes: VH of mHIT3a; mouse IgG1 (mIgG1) heavy chain constant region; numbers count on: Eu numbering; VL of mHIT3a; mouse kappa light chain constant region (CL); numbers count on: Kabat numbering; Whole IgG of one HC and one LC; also called anti-CD3; H2L2H2L2; source: Expi293F, transiently expressed, purified (Ab-Capcher MAG2 or MonoSpin ProG); copies: 2 + 2
On to B3, for which, in assay [2], the Kd was 8.32 µM.

B4: mHIT3a mIgG1, homodimeric antibody without FAST-Ig mutations (antibody, V domains shown)
VH: B3 VH with E39Q
VL: B2 VL with Q1D, V3E, K37Q, H60R, R62S, I105L, N106K
notes: VH of the original mouse antibody mHIT3a; mouse IgG1 (mIgG1) heavy chain constant region; numbers count on: Eu numbering; VL of the original mouse antibody mHIT3a; mouse kappa light chain constant region (CL); Whole IgG of one HC and one LC; also called anti-CD3; H2L2H2L2; source: Expi293F, transiently expressed, purified (Ab-Capcher MAG2 or MonoSpin ProG); copies: 2 + 2
In the case of B4, the Kd in assay [2] was determined as 7.54 µM.

B5: mHIT3a mIgG2a V1+C19, homodimeric antibody with FAST-Ig V1+C19 mutations (antibody, V domains shown)
VH: B3 VH
VL: B2 VL with Q1D, V3E, H60R, R62S, I105L, N106K
notes: VH of mHIT3a; mouse IgG2a (mIgG2a) heavy chain constant region; numbers count on: Eu numbering; VL of mHIT3a; mouse kappa light chain constant region (CL); numbers count on: Kabat numbering; Whole IgG of one HC and one LC; also called anti-CD3; H2L2H2L2; source: Expi293F, transiently expressed, purified (Ab-Capcher MAG2, MonoSpin ProA or MonoSpin ProG); copies: 2 + 2
As to B5, the Kd in assay [2] was 10.4 µM.

B6: mOKT3 mIgG2a V1+C19, homodimeric antibody with FAST-Ig V1+C19 mutations (antibody, V domains shown)
VH: not shown
VL: B2 VL
notes: VH of mOKT3; mouse IgG2a (mIgG2a) heavy chain constant region; numbers count on: Eu numbering; VL of mOKT3; mouse kappa light chain constant region (CL); numbers count on: Kabat numbering; Whole IgG of one HC and one LC; also called anti-CD3; H2L2H2L2; source: Expi293F, transiently expressed, purified (Ab-Capcher MAG2, MonoSpin ProA or MonoSpin ProG); copies: 2 + 2
Take B6: the Kd in assay [2] was found to be 7.68 µM.

B7: mHIT3a mIgG2a, homodimeric antibody without FAST-Ig mutations (antibody, V domains shown)
VH: B3 VH with E39Q
VL: B2 VL with Q1D, V3E, K37Q, H60R, R62S, I105L, N106K
notes: VH of the original mouse antibody mHIT3a; mouse IgG2a (mIgG2a) heavy chain constant region; numbers count on: Eu numbering; VL of the original mouse antibody mHIT3a; mouse kappa light chain constant region (CL); Whole IgG of one HC and one LC; also called anti-CD3; H2L2H2L2; source: Expi293F, transiently expressed, purified (Ab-Capcher MAG2, MonoSpin ProA or MonoSpin ProG); copies: 2 + 2
Consider B7, for which the Kd in assay [2] was determined as 10.4 µM.

B8: m12F6 mIgG1 V1+C19, homodimeric antibody with FAST-Ig V1+C19 mutations (antibody, V domains shown)
VH: QVQLQQSGAELARPGASVKMSCKASGYTFTSYTMHWVKERPGQGLEWIGYINPSSGYTKYNQKFKDKATLTADKSSSTAYMQLSSLTSEDSAVYYCARWQDYDVYFDYWGQGTTLTVSS
VL: QIVLSQSPAILSASPGEKVTMTCRASSSVSYMHWYQKKPGSSPKPWIYATSNLASGVPARFSGSGSGTSYSLTISRVEAEDAATYYCQQWSSNPPTFGGGTKLETK
notes: VH of m12F6; mouse IgG1 (mIgG1) heavy chain constant region; numbers count on: Eu numbering; VL of m12F6; mouse kappa light chain constant region (CL); numbers count on: Kabat numbering; Whole IgG of one HC and one LC; also called anti-CD3; H2L2H2L2; source: Expi293F, transiently expressed, purified (Ab-Capcher MAG2 or MonoSpin ProG); copies: 2 + 2
On to B8, for which the Kd in assay [2] is 16.1 µM.

B9: m12F6 mIgG2a V1+C19, homodimeric antibody with FAST-Ig V1+C19 mutations (antibody, V domains shown)
VH: B8 VH
VL: B8 VL
notes: VH of m12F6; mouse IgG2a (mIgG2a) heavy chain constant region; numbers count on: Eu numbering; VL of m12F6; mouse kappa light chain constant region (CL); numbers count on: Kabat numbering; Whole IgG of one HC and one LC; also called anti-CD3; H2L2H2L2; source: Expi293F, transiently expressed, purified (Ab-Capcher MAG2, MonoSpin ProA or MonoSpin ProG); copies: 2 + 2
In the case of B9, the Kd in assay [2] is 16.4 µM.

B10: m12F6 mIgG2a, homodimeric antibody without FAST-Ig mutations (antibody, V domains shown)
VH: B8 VH with E39Q
VL: B8 VL with K37Q
notes: VH of the original mouse antibody m12F6; mouse IgG2a (mIgG2a) heavy chain constant region; numbers count on: Eu numbering; VL of the original mouse antibody m12F6; mouse kappa light chain constant region (CL); Whole IgG of one HC and one LC; also called anti-CD3; H2L2H2L2; source: Expi293F, transiently expressed, purified (Ab-Capcher MAG2, MonoSpin ProA or MonoSpin ProG); copies: 2 + 2
Consider B10, for which the Kd in assay [2] came out at 16.7 µM.

B11: m12F6 mIgG1, homodimeric antibody without FAST-Ig mutations (antibody, V domains shown)
VH: B8 VH with E39Q
VL: B8 VL with K37Q
notes: VH of the original mouse antibody m12F6; mouse IgG1 (mIgG1) heavy chain constant region; numbers count on: Eu numbering; VL of the original mouse antibody m12F6; mouse kappa light chain constant region (CL); Whole IgG of one HC and one LC; also called anti-CD3; H2L2H2L2; source: Expi293F, transiently expressed, purified (Ab-Capcher MAG2 or MonoSpin ProG); copies: 2 + 2
Regarding B11, the dissociation constant Kd in assay [2] was 16.8 µM.

The term Kd denotes the concentration at which binding is half-saturated.
